Publication PMC7010359, “High-resolution crystal structures of Escherichia coli FtsZ bound to GDP and GTP” (Acta Crystallographica. Section F, Structural Biology …, 2020)

Target: the molecule itself
Experiment: crystal structure; hanging-drop vapor diffusion, 298 K, protein at 37 mg/ml with 1 mM GDP (1.35 Å) or 30 mg/ml with 1 mM GTP (1.40 Å); space group P2(1), one molecule in the asymmetric unit; filament generated by crystal packing

B1: E. coli FtsZ(L178E), truncated to the globular domain (residues 10-316) (domain or fragment, E. coli K-12, UniProt P0A9A6 10-316, looked up)
chain: DAVIKVIGVGGGGGNAVEHMVRERIEGVEFFAVNTDAQALRKTAVGQTIQIGSGITKGLGAGANPEVGRNAADEDRDALRAALEGADMVFIAAGMGGGTGTGAAPVVAEVAKDLGILTVAVVTKPFNFEGKKRMAFAEQGITELSKHVDSLITIPNDKLLKVLGRGISELDAFGAANDVLKGAVQGIAELITRPGLMNVDFADVRTVMSEMGYAMMGSGVASGEDRAEEAAEMAISSPLLEDIDLSGARGVLVNITAGFDLRLDEFETVGNTIRAFASDNATVVIGTSLDPDMNDELRVTVVATGIG
notes: FtsZ, E. coli K-12, globular domain, residues 10-316, with the mutation L178E; expressed from pET-11; Crystallized with 1 mM GDP (PDB 6umk) or 1 mM GTP (PDB 6unx); No tag is mentioned; One molecule in the asymmetric unit; the protofilament arises from crystal packing; also called EcFtsZ(L178E); source: E. coli BL21(DE3), purified (ammonium sulfate precipitation, Resource Q anion exchange)
B1: binds.
